# Experimental data published in patent publication US11485991B2, “Multifunctional recombinant nucleotide dependent glycosyltransferase protein and its method of glycosylation thereof” (Council of Scientific & Industrial Research, priority 2016, dated 2022).
# Ends that are not written are not given here.
# Columns and labels:
# [1] = tested on: Listeria monocytogenes EGD-e; assay: Agar well diffusion assay of antimicrobial activity of enterocin 96 glycoforms (zone of growth inhibition); format: cell-based; details: 50 μM glycoform in agar wells, BHI agar seeded with Listeria monocytogenes EGD-e, 37° C. for 12 h
# Description: The di-glycosylated, mono-glycosylated and un-glycosylated glycoforms corresponding to enterocin 96 (known bacteriocin) peptide sequence are prepared under controlled GT assay conditions and purified using RP-HPLC based method. The lyophilized product glycoforms including glyco-diversified forms are resuspended in 50 mM Tris-Cl, pH 7.5. The culture of Listeria monocytogenes EGD-e is grown in BHI media at 37° C. for 7-8 h. Agar plates are prepared by mixing 25 μL of saturated culture (A600≈1.5) and 100 mL of molten BHI agar (cooled to 40-45° C.) and pouring the mixture into sterile petri plates. The seeded agar plates are allowed to solidify for 30-45 min and agar wells are prepared using a sterile cork borer. 50 μM of all glycoforms including glyco-diversified forms are poured in to the wells and plates are incubated at 37° C. for 12 h. The antimicrobial activity is determined by the presence and absence of zone of growth inhibition.
# [2] = tested on: synthetic acceptor substrates; assay: In vitro glycosyltransferase (GT) assay of GT-CTH mutants with MS detection of glycosylated product; format: biochemical; details: purified mutant of GT-CTH, acceptor substrate and UDP-glucose, MS analysis
# Description: Purified recombinant nucleotide dependent glycosyltransferase (0.2 μM) is incubated with synthetic acceptor substrates (5 μM) and 100 μM UDP-glucose in a reaction buffer containing 20 mM HEPES, pH 7.5, 50 mM NaCl, 1 mM TCEP and 1 mM MgCl2. The reaction is incubated at 25° C. for 12 h. Each assay reaction was accompanied by control reaction (without enzyme). The reactions are quenched with 5% TFA to pH 2, desalted using ZipTip C18, and vacuum dried and analyzed using mass spectrometry.
# Mass spectrometry has been used to detect glycosylation in product of glycosylation assay reactions using Matrix Assisted Laser Desorption Ionization Time of flight mass spectrometry (MALDI-TOF MS) and Liquid chromatography electrospray ionization mass spectrometry (LC/ESI-MS) techniques. MALDI-TOF MS has carried out at AB Sciex 5800 MALDI TOF/TOF and LC/ESI-MS has carried out at 6550 iFunnel QTOF LC/MS (Agilent Technologies) using Zorbax Eclipse plus C8 column (3.0×150 mm, 5μ) of Agilent technologies. For MALDI-TOF analysis and LC-ESI/MS analysis, vacuum dried samples are reconstituted in water and 0.1% formic acid respectively.
# Various mutations are introduced in recombinant nucleotide dependent glycosyltransferase (GT-CTH) using side directed mutagenesis (Quick change lightning Mutagenesis kit, Agilent) using GTpET28a plasmid as template. The sequence of mutants is verified through DNA sequencing. The mutated recombinant plasmids are transformed into E. coli Lemo21(DE3) and E. coli BL21(DE3) cells for expression. The over expression, purification and functional analysis of mutants of recombinant nucleotide dependent glycosyltransferase proteins are performed using the above mentioned methods. The list of mutants of recombinant nucleotide dependent glycosyltransferase, created in accordance with present invention identifies D102, R136, W147, D152, A153, D154 residues critical for activity of recombinant nucleotide dependent glycosyltransferase (GT-CTH). Replacement of these residues to alanine results into abolishment of the glycosyltransferase activity.
molecule,measurement,setting,value
"di-glucosylated product: Enterocin 96 peptide (SEQ ID NO: 4) carrying a glucose-glucose disaccharide glycan, made with the recombinant glycosyltransferase (MSKRDCNLMKACCAGQAVTYAIHSLLNRLGGDSSDPAGCNDIVRKYCK; cysteine pairing not given here; also: glucose-glucose disaccharide glycan, site not given here)",antimicrobial activity (presence and absence of zone of growth inhibition),[1],more antimicrobial activity than mono-glucosylated product
GT-CTH C87A (protein) MGYSENFIANDWFNVEVFNKNKYTLTNQENKDVTELWLQILKGLKFPNELKETVSYSKNLKELSLKTHAEVSVCIIAKNEQDSIRKAINSIYEFSDEIIFIDTGSIDSTKKIVKEIASEKVKIFDYTWQDDFSDARNYSIQKASKEWILIIDADEYVSSDELIKLRLLIDMLDRFKFKDSLRVSCAIYQLDNVITHGQSRLFRNNNKIKYYGLIHEELRNNKGLDPIFNVESEITFFHDGYKEILRKEKCERNIRLLAKMLEKEPDNVRWAYLYCRDSFSINSNIDFEKILLPFLIKNMDESISCENILLTNYTHLILFLITKKYIIDGKSSLASKCIEVLEKMLPNSSDVTFYKFLNKQHSLYEQQFEFLKEVIQFRKNNEYDQYSQIGCNLLHYDLLISGLLFDVKSYDYSYQYFLKLDLANYFSELEIPDEYKMLINKYRENESLEHHHHHH,In vitro glycosyltransferase activity status,[2],Active
GT-CTH E97A (protein) MGYSENFIANDWFNVEVFNKNKYTLTNQENKDVTELWLQILKGLKFPNELKETVSYSKNLKELSLKTHAEVSVCIIAKNEQDSIRKCINSIYEFSDAIIFIDTGSIDSTKKIVKEIASEKVKIFDYTWQDDFSDARNYSIQKASKEWILIIDADEYVSSDELIKLRLLIDMLDRFKFKDSLRVSCAIYQLDNVITHGQSRLFRNNNKIKYYGLIHEELRNNKGLDPIFNVESEITFFHDGYKEILRKEKCERNIRLLAKMLEKEPDNVRWAYLYCRDSFSINSNIDFEKILLPFLIKNMDESISCENILLTNYTHLILFLITKKYIIDGKSSLASKCIEVLEKMLPNSSDVTFYKFLNKQHSLYEQQFEFLKEVIQFRKNNEYDQYSQIGCNLLHYDLLISGLLFDVKSYDYSYQYFLKLDLANYFSELEIPDEYKMLINKYRENESLEHHHHHH,In vitro glycosyltransferase activity status,[2],Active
GT-CTH D102A (protein) MGYSENFIANDWFNVEVFNKNKYTLTNQENKDVTELWLQILKGLKFPNELKETVSYSKNLKELSLKTHAEVSVCIIAKNEQDSIRKCINSIYEFSDEIIFIATGSIDSTKKIVKEIASEKVKIFDYTWQDDFSDARNYSIQKASKEWILIIDADEYVSSDELIKLRLLIDMLDRFKFKDSLRVSCAIYQLDNVITHGQSRLFRNNNKIKYYGLIHEELRNNKGLDPIFNVESEITFFHDGYKEILRKEKCERNIRLLAKMLEKEPDNVRWAYLYCRDSFSINSNIDFEKILLPFLIKNMDESISCENILLTNYTHLILFLITKKYIIDGKSSLASKCIEVLEKMLPNSSDVTFYKFLNKQHSLYEQQFEFLKEVIQFRKNNEYDQYSQIGCNLLHYDLLISGLLFDVKSYDYSYQYFLKLDLANYFSELEIPDEYKMLINKYRENESLEHHHHHH,In vitro glycosyltransferase activity status,[2],Inactive
GT-CTH D130A (protein) MGYSENFIANDWFNVEVFNKNKYTLTNQENKDVTELWLQILKGLKFPNELKETVSYSKNLKELSLKTHAEVSVCIIAKNEQDSIRKCINSIYEFSDEIIFIDTGSIDSTKKIVKEIASEKVKIFDYTWQADFSDARNYSIQKASKEWILIIDADEYVSSDELIKLRLLIDMLDRFKFKDSLRVSCAIYQLDNVITHGQSRLFRNNNKIKYYGLIHEELRNNKGLDPIFNVESEITFFHDGYKEILRKEKCERNIRLLAKMLEKEPDNVRWAYLYCRDSFSINSNIDFEKILLPFLIKNMDESISCENILLTNYTHLILFLITKKYIIDGKSSLASKCIEVLEKMLPNSSDVTFYKFLNKQHSLYEQQFEFLKEVIQFRKNNEYDQYSQIGCNLLHYDLLISGLLFDVKSYDYSYQYFLKLDLANYFSELEIPDEYKMLINKYRENESLEHHHHHH,In vitro glycosyltransferase activity status,[2],Active
